The labels stand for the following.
B1: Hammerhead Ribozyme (parent)
chain: ACCGGAUGUGCUUUCCGGUCUGAUGAGUCCGUGAGGACGAAACAG

The variants in the data set derive from B1. The data set is described as follows: self-cleavage, relative activity (ratio to wild type); higher = more cleavage; co-transcriptional.
In the case of G10U C38U, the self-cleavage was 1.09.

Turning to U24G C43G, the self-cleavage worked out at 0.337.

On to C20A A42U, for which the self-cleavage amounted to 0.386.

In the case of A6G U12G, the self-cleavage worked out at 0.802.

Regarding A23C G27A, the self-cleavage amounted to 0.341.

Regarding U9C A41C, the self-cleavage is 0.407.

Turning to A6U A26U, the self-cleavage was 0.588.

As for G4A U19A, the self-cleavage amounted to 0.353.

Turning to A6G C15G, the self-cleavage came out at 0.54.

On to U21C A34G, for which the self-cleavage is 0.653.

G22A U28G: the self-cleavage turned out to be 0.37.

A34U A42C: the self-cleavage was found to be 0.3.

With G18A A23G, the self-cleavage is 0.361.

For the variant U9C A26C, the self-cleavage was found to be 0.554.

Regarding G25U A37C, the self-cleavage was 0.294.

Regarding C11A G45U, the self-cleavage turned out to be 1.05.

Consider C2A C38G, for which the self-cleavage amounted to 0.373.

Turning to G8U A34G, the self-cleavage stood at 0.927.

U7A U32C: the self-cleavage was determined as 0.797.

As for U7A U32G, the self-cleavage worked out at 1.07.

As for A1G A44G, the self-cleavage is 2.11.

As for G4U A34C, the self-cleavage was determined as 0.296.

Regarding C3A U28C, the self-cleavage was determined as 0.354.

As for A34U A41G, the self-cleavage is 0.305.

Consider U24C A41C, for which the self-cleavage amounted to 0.305.

For the variant C3U G25A, the self-cleavage is 0.368.

With U19G G33A, the self-cleavage came out at 0.551.

With C20A U32G, the self-cleavage amounted to 0.255.

As for A6G G27U, the self-cleavage was found to be 0.356.

For the variant C15A G17A, the self-cleavage amounted to 0.351.

For G5U C30G, the self-cleavage was 0.445.

As for C16U, the self-cleavage was 0.983.

For G4A A44C, the self-cleavage was found to be 0.388.

Turning to G27C A40C, the self-cleavage amounted to 0.411.

On to C16G G33A, for which the self-cleavage was determined as 0.994.

For U14A G22A, the self-cleavage worked out at 0.36.

On to C11U G35C, for which the self-cleavage came out at 0.588.

Regarding C2G G10A, the self-cleavage is 0.383.

Consider C11G C38G, for which the self-cleavage stood at 0.692.

On to C38G A42G, for which the self-cleavage turned out to be 0.321.

Regarding A1U U19C, the self-cleavage worked out at 0.617.

For G36A A44C, the self-cleavage is 0.31.

Consider A6C C29A, for which the self-cleavage turned out to be 0.44.

On to G8U G35A, for which the self-cleavage stood at 0.811.

With G35A G45U, the self-cleavage was determined as 0.471.

G17A C29U: the self-cleavage worked out at 0.68.

Regarding U19C G36C, the self-cleavage is 0.427.

For the variant U9G C30U, the self-cleavage stood at 1.26.

Consider G5A U28C, for which the self-cleavage was found to be 0.654.

Consider U7C G36A, for which the self-cleavage came out at 0.421.

Consider G10U G31U, for which the self-cleavage worked out at 0.736.

In the case of C11A U21G, the self-cleavage amounted to 0.713.

Regarding U7G C30A, the self-cleavage turned out to be 1.21.

Consider C38G C43G, for which the self-cleavage worked out at 0.288.

In the case of A1U A37U, the self-cleavage amounted to 0.464.

Turning to A1U A37G, the self-cleavage was found to be 0.734.

On to A23U A44C, for which the self-cleavage stood at 0.438.

In the case of U14A C30U, the self-cleavage amounted to 0.96.

On to U14A C30G, for which the self-cleavage is 0.624.

In the case of A26G G35U, the self-cleavage turned out to be 0.283.

Take A26U C30A: the self-cleavage came to 0.507.

In the case of G4A C43U, the self-cleavage stood at 0.271.

C3G U7C: the self-cleavage came out at 0.462.

With U13G A34U, the self-cleavage came to 0.976.

G35A A41G: the self-cleavage worked out at 0.328.

With G10A G25A, the self-cleavage was 0.365.

Turning to U12A U32A, the self-cleavage came out at 0.698.

Consider U14A C43U, for which the self-cleavage is 0.41.

Consider U7A C29G, for which the self-cleavage stood at 0.663.

On to C11U A40U, for which the self-cleavage came to 0.296.

C11A U28A: the self-cleavage was found to be 1.04.

U14A C15U: the self-cleavage was 0.994.

Turning to G27A G45U, the self-cleavage was found to be 0.472.

As for U19A A26G, the self-cleavage amounted to 0.313.

With G8A A23G, the self-cleavage stood at 0.325.

On to G22U A41C, for which the self-cleavage turned out to be 0.372.

On to C11A G17C, for which the self-cleavage was 0.506.

In the case of C3A A41U, the self-cleavage came to 0.259.

Take U9A A34C: the self-cleavage worked out at 1.2.

Turning to C2G A6G, the self-cleavage amounted to 0.292.

With A37G G45U, the self-cleavage was 0.567.

Regarding G22C G25A, the self-cleavage is 0.409.

Consider A1U C2G, for which the self-cleavage stood at 1.92.

A6G U24C: the self-cleavage came to 0.944.

As for G39C A41C, the self-cleavage was 0.351.

Take G18C G27A: the self-cleavage came out at 0.416.

For the variant C16G G25A, the self-cleavage amounted to 0.357.

As for A6C U9A, the self-cleavage worked out at 0.479.

Consider C11A G36C, for which the self-cleavage came out at 0.911.

With U12G G18U, the self-cleavage stood at 0.998.

For U9C C20A, the self-cleavage stood at 0.363.

For G22U G36U, the self-cleavage was determined as 0.301.

With G10A G35C, the self-cleavage turned out to be 0.763.

As for G10U C30G, the self-cleavage came to 1.

On to U13G A40C, for which the self-cleavage turned out to be 0.454.

On to G10U U19A, for which the self-cleavage stood at 0.347.

In the case of U13A G17U, the self-cleavage worked out at 1.02.

Regarding G31A C38U, the self-cleavage worked out at 0.919.

Regarding C30G G36C, the self-cleavage stood at 0.441.

As for A23G G45U, the self-cleavage is 0.297.

G8C U14C: the self-cleavage came out at 0.785.

On to A34C G36C, for which the self-cleavage was 0.419.

For U13C G31C, the self-cleavage is 1.13.

With G10C A23G, the self-cleavage stood at 0.309.

In the case of U28A A34U, the self-cleavage came out at 0.678.

For the variant U21C C29A, the self-cleavage was 0.37.

Consider C3G U12G, for which the self-cleavage stood at 0.356.

G35A G36C: the self-cleavage was 0.484.

Regarding G8U A41U, the self-cleavage turned out to be 0.34.

With C20G U28A, the self-cleavage amounted to 0.268.

Take C2U G35U: the self-cleavage amounted to 0.757.

Consider U14C A40G, for which the self-cleavage amounted to 0.273.

As for A6G U7G, the self-cleavage came out at 1.35.

With A23U A37C, the self-cleavage came to 0.381.

In the case of U24G G36C, the self-cleavage came to 0.452.

In the case of A34G A37G, the self-cleavage is 0.649.

G10U C43G: the self-cleavage is 0.405.

As to A6U G18U, the self-cleavage is 0.344.

Consider C15G A41G, for which the self-cleavage was 0.431.

Consider C29U A34C, for which the self-cleavage was found to be 0.723.

U12C U32A: the self-cleavage was determined as 1.26.

For G8U A37U, the self-cleavage is 0.774.

Take G5A A26U: the self-cleavage worked out at 0.66.

Regarding G17U U28A, the self-cleavage is 0.58.

As to U24G A40C, the self-cleavage amounted to 0.421.

Turning to A26G G45U, the self-cleavage is 0.338.

Turning to A1G G25U, the self-cleavage was determined as 0.353.

With U7C G27C, the self-cleavage was determined as 0.598.

U21A G25A: the self-cleavage worked out at 0.334.

In the case of U13C G17A, the self-cleavage worked out at 0.809.

A26U C43A: the self-cleavage is 0.33.

With G5U C38G, the self-cleavage came out at 0.349.

Take C15U A37C: the self-cleavage came out at 0.714.

For G25A G45A, the self-cleavage worked out at 0.336.

Regarding C16U A42U, the self-cleavage was 0.273.

Regarding C2A A37G, the self-cleavage is 0.427.

Turning to A26C C43G, the self-cleavage amounted to 0.31.

Consider U32C A40G, for which the self-cleavage was found to be 0.406.

Consider U13G G33U, for which the self-cleavage is 0.801.

On to A1U A26U, for which the self-cleavage amounted to 0.383.

For A26G A40C, the self-cleavage stood at 0.399.

Regarding G4C G5C, the self-cleavage was found to be 0.327.

For the variant U12A G25C, the self-cleavage is 0.224.

In the case of U12A G25A, the self-cleavage was determined as 0.303.

For the variant U7A U14A, the self-cleavage came out at 1.15.

On to G17U G39A, for which the self-cleavage is 0.328.

With C16A G25U, the self-cleavage was found to be 0.331.

As for A1U C38U, the self-cleavage was 0.583.

Regarding A37C C43U, the self-cleavage amounted to 0.392.

In the case of G10A G22U, the self-cleavage was 0.319.

For the variant A23U G31C, the self-cleavage is 0.393.

As for C2U G22A, the self-cleavage was found to be 0.341.

On to U21A U32A, for which the self-cleavage is 0.539.

A6G G39A: the self-cleavage was found to be 0.31.

For U24A C43A, the self-cleavage came out at 0.341.

With C30G G45U, the self-cleavage was determined as 0.377.

Regarding A23U A26C, the self-cleavage came to 0.379.

As for U32G A40C, the self-cleavage was found to be 0.372.

For the variant U7G G22C, the self-cleavage was found to be 0.389.

For G5C C20U, the self-cleavage was 0.358.

With A41G A44G, the self-cleavage was found to be 0.692.

Regarding U9C A23C, the self-cleavage was 0.283.

Consider A26G U32C, for which the self-cleavage was 0.328.

As to A40C A44U, the self-cleavage amounted to 0.347.

For G8C A42C, the self-cleavage turned out to be 0.363.

On to U24G G31A, for which the self-cleavage was 0.992.

For U13A A26C, the self-cleavage amounted to 0.564.
